Measurements from patent US20150266963A1.

Key:
[1] = target: T1, recombinant human CD70 (Flag-TNC-CD70) (human) (UniProt P32970); experiment: blocking ELISA; human Flag-TNC-CD70; competitor CD27-Fc
T1 sequence (looked up): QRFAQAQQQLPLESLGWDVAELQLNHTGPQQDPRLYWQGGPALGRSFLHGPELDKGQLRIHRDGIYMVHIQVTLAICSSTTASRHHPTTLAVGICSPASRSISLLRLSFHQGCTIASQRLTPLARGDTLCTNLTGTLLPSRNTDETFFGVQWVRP

[2] = target: T2, human CD70 expressed on the surface of cells (human) (UniProt P32970); experiment: flow cytometry on U266 cells, goat anti human IgG1 FITC [panel U266]
T2 sequence (looked up): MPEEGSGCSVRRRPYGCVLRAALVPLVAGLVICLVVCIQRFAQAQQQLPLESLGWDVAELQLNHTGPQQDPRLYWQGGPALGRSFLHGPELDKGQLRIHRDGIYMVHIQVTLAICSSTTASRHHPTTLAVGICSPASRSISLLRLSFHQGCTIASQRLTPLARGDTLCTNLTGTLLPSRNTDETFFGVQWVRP

[3] = target: T1, recombinant human CD70 (Flag-TNC-CD70) (human); experiment: blocking ELISA; Flag-TNC-CD70 captured by anti-FLAG M2; competitor CD27-Fc 6.5 nM
[4] = target: T2, human CD70 expressed on the surface of cells (human); experiment: flow cytometry on U266 cells, 1 h at 4 °C, anti-hIgG1-Fc-FITC or anti-hIgG-Fc-PE [panel U266]
[5] = target: T2, human CD70 expressed on the surface of cells (human); experiment: flow cytometry on SU-DHL-6 cells, 1 h at 4 °C, anti-hIgG1-Fc-FITC or anti-hIgG-Fc-PE [panel SU-DHL-6]

Substance: MDX1411 (antibody)
- IC50 [1]: 0.044 µg/mL
- EC50 (read off the curve) [2]: 100 ng/mL
- IC50 [3]: 5.5 µg/mL
- EC50 (read off the curve) [4]: 100 ng/mL
- EC50 (read off the curve) [5]: 2000 ng/mL
